# Legend:
# [1] = target: FliG 117C/166C protein (E. coli) (UniProt P0ABZ1); test: cross-linking
# [2] = target: FliG 158C/214C mutant (E. coli) (UniProt P0ABZ1); test: cross-linking
stoichiometry N [1] [subunits],stoichiometry N [2] [subunits],Substance
8,,FliG 117C/166C protein (from UniProt P0ABZ1 1-331) (natural protein)
,> 9,FliG 158C/214C mutant (from UniProt P0ABZ1 1-331) (natural protein)

# Reference: article PMC5494207
